From paper PMC6189496, “Epstein-Barr Virus Nuclear Antigen 3C Inhibits Expression of COBLL1 and the ADAM28-ADAMDEC1 Locus via Interaction with the Histone Lysine Demethylase KDM2B” (Journal of Virology, 2018)
Where a chain is given by its changes, count along the chain named. Names and notes keep the numbering of the source.

Legend:
[1] = target: T1, BMI1 (human (endogenous in LCLs), UniProt P35226 1-326); experiment: co-IP; LCL extracts (10^7 cells lysed in IP buffer, precleared); the cellular protein (RBPJ, BMI1, SUZ12 or KDM2B) immunoprecipitated from 200 ug lysate overnight at 4°C, protein G-Sepharose, four washes; Western blot for EBNA3C; isotype IgG control; mutants quantified by ImageJ as percent relative IP compared to EBNA3C WT; conditions: partners not purified
T1 construct: BMI1, endogenous in lymphoblastoid cell lines, immunoprecipitated with anti-BMI1 (A301-694A; Bethyl); also called PRC1 core component BMI1; source: endogenous, LCL lysate
T1 sequence (looked up): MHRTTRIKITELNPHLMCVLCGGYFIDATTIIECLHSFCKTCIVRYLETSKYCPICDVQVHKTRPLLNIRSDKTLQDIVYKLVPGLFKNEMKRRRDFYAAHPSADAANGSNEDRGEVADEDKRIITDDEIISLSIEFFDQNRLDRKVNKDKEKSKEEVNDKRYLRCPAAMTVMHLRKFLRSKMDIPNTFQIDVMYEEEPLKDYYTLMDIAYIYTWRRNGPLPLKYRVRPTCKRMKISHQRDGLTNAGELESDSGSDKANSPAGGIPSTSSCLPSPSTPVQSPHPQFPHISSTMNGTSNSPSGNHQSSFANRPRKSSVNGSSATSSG

[2] = target: T2, histone lysine demethylase KDM2B (human (endogenous in LCLs), UniProt Q8NHM5 1-1336); experiment: as above; conditions: partners not purified
T2 construct: KDM2B, endogenous in lymphoblastoid cell lines, immunoprecipitated with anti-KDM2B (09-864; Millipore); also called FBXL10; JHDM1B; source: endogenous, LCL lysate
T2 sequence (looked up): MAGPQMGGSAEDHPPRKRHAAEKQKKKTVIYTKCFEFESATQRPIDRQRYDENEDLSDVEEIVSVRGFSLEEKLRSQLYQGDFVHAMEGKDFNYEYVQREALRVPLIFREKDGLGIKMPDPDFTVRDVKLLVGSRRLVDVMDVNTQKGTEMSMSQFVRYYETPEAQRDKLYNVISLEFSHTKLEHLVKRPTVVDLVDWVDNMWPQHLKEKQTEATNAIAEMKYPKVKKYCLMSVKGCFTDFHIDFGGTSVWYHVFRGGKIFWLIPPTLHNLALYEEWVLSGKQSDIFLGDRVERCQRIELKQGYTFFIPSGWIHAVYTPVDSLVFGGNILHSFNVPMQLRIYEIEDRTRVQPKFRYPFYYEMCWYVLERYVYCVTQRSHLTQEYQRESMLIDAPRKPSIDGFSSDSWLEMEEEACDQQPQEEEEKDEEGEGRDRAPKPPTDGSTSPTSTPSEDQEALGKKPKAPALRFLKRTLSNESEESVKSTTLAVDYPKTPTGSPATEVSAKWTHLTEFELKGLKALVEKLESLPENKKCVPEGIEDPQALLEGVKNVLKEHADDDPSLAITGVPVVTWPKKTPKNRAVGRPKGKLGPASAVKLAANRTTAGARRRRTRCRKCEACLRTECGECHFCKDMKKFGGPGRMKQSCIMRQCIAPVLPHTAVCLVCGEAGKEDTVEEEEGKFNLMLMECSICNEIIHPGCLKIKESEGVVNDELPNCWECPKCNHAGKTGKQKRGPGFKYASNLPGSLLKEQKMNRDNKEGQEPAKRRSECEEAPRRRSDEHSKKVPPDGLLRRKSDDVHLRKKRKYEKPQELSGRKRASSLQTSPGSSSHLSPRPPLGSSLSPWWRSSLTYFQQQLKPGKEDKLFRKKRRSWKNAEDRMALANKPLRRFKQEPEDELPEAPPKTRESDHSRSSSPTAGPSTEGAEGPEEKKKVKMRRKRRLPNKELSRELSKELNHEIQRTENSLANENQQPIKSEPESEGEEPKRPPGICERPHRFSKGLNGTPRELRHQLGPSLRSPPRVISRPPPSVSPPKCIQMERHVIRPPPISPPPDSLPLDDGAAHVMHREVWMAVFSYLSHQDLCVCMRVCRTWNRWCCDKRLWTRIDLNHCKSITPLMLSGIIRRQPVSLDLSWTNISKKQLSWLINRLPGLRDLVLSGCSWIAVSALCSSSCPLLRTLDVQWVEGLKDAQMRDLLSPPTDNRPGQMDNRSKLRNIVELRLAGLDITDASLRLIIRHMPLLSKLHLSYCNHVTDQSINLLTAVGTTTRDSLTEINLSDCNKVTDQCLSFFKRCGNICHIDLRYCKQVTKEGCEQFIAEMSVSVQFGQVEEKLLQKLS

B1: EBNA3C HDmut (209TFGC212 mutated to 209AAAA212) (natural protein)
chain: MESFEGQGDSRQSPDNERGDNVQTTGEHDQDPGPGPPSSGASERLVPEESYSRDQQPWGQSRGDENRGWMQRIRRRRRRRAALSGHLLDTEDNVPPWLPPHDITPYTARNIRDAACRAVKQSHLQALSNLILDSGLDTQHILCFVMAARQRLQDIRRGPLVAEGGVGWRHWLLTSPSQSWPMGYRTATLRTLTPVPNRVGADSIMLTAAAAAQNAARTLNTFSATVWTPPHAGPREQERYAREAEVRFLRGKWQRRYRRIYDLIELCGSLHHIWQNLLQTEENLLDFVRFMGVMSSCNNPAVNYWFHKTIGNFKPYYPWNAPPNENPYHARRGIKEHVIQNAFRKAQIQGLSMLATGGEPRGDATSETSSDEDTGRQGSDVELESSDDELPYIDPNMEPVQQRPVMFVSRVPAKKPRKLPWPTPKTHPVKRTNVKTSDRSDKAEAQSTPERPGPSEQSSVTVEPAHPTPVEMPMVILHQPPPVPKPVPVKPTPPPSRRRRGACVVYDDDVIEVIDVETTEDSSSVSQPNKPHRKHQDGFQRSGRRQKRAAPPTVSPSDTGPPAVGPPAAGPPAAGPPAAGPPAAGPPAAGPPAAGPRILAPLSAGPPAAGPHIVTPPSARPRIMAPPVVRMFMRERQLPQSTGRKPQCFWEMRAGREITQMQQEPSSHLQSATQPTTPRPSWAPSVCALSVMDAGKAQPIESSHLSSMSPTQPISHEEQPRYEDPDAPLDLSLHPDVAAQPAPQAPYQGYQEPPAPQAPYQGYQEPPPPQAPYQGYQEPPAHGLQSSSYPGYAGPWTPRSQHPCYRHPWAPWSQDPVHGHTQGPWDPRAPHLPPQWDGSAGHGQDQVSQFPHLQSETGPPRLQLSLVPLVSSSAPSWSSPQPRAPIRPIPTRFPPPPMPLQDSMAVGCDSSGTACPSMPFASDYSQGAFTPLDINATTPKRPRVEESSHGPARCSQATAEAQEILSDNSEISVFPKDAKQTDYDASTESELD
notes: EBNA3C of Epstein-Barr virus, strain B95.8, with the TFGC (homology domain) motif mutated to alanines; also called homology domain mutant
percent relative IP compared to EBNA3C WT [1]: 60%
percent relative IP compared to EBNA3C WT [2]: 8%

B2: EBNA3C W227S (natural protein)
chain: B1 chain with A209T, A210F, A211G, A212C, W227S
notes: EBNA3C of Epstein-Barr virus, strain B95.8, with W227S in the 226VWTP229 motif
percent relative IP compared to EBNA3C WT [2]: 80%
